Test results: patent US20260265354A1 (JIANGSU MABWELL HEALTH PHARMACEUTICAL R AND D, published 2026)
Positions count from the first letter of the chain named.

B1: Antibody R012 (antibody, V domains shown)
VH: SKSVEESGGRLVTPGTPLTLTCTVSGFSLSTYAMSWVRQAPGKGLEYIGIISGRGTTYYASWLKGRFTISKTSTTVDLKITSPTTEDTATYFCARDAGISDVYTGYFNLWGQGTLVTVSS
VL: QPVLAQLPSASAALGASAKLTCTLSSAHRTYTIAWYQQQQGEAPRYLMMLKSDGSYTKGTGVPDRFSGSSSGADRYLIISSVQAADEADYYCGADDSGGYVFGGGTQLTVTG
notes: Rabbit monoclonal antibody from phage display; also called Nectin-4 rabbit monoclonal antibody R012; rabbit antibody R012
B2: Antibody R036 (antibody, V domains shown)
VH: SQSVEESGGRLVTPGTPLTLTCTVSGFSLSSYAMSWVRQAPGKGLEYIGIIGGRGTTYYAIWAKGRFTISKTSTTVDLKITSPTTEDTATYFCARDAGTTYVGTTYVATGYFNLWGQGTLVTVSS
VL: B1 VL with A5T, L7P, R29K, M49I, K58R, A85D
notes: Rabbit monoclonal antibody from phage display; also called Nectin-4 rabbit monoclonal antibody R036; rabbit antibody R036
B3: Antibody MM11 (antibody, mouse IgG1, kappa, V domains shown)
VH: DVQLQESGPGLVKPSQSLSLTCSVTGYSITSNFYWNWIRQFPGNRLEWMGYISYDGSNNYNPSLKNRISISRDTSKNQFFLKLNSVTTEDTATYYCVRADYWGQGTLVTVSA
VL: DTVMTQTPLSLPVSLGDQASISCRSSQSLESSDGHAYLNWYLQKPGQSPQLLIYRVSNRFSGVLHRFSGSGSGTDFTLKISRVEAEDLGVYFCLQFTHVPFTFGSGTKLEIKR
notes: Mouse monoclonal antibody from hybridoma; also called Nectin-4 mouse monoclonal antibody MM11; mouse antibody MM11

Each binder was assayed against T1, Nectin-like-4 (UniProt Q8NFZ8 21-324, limits assumed) (assay: ELISA, coated antigen).
T1 construct: Bought recombinant protein; also called CADM4; IgSF4C
T1 sequence (looked up): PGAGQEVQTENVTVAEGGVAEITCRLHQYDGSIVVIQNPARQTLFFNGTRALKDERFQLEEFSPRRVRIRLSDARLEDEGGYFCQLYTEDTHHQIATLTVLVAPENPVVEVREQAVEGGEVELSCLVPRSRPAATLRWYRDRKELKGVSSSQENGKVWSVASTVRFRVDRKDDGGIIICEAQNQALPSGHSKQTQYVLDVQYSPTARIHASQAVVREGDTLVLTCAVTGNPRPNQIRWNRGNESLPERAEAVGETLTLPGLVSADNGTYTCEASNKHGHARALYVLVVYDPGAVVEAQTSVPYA

Binder | binding result
B1 | no binding (tested: 10000 ng/ml)
B2 | no binding (tested: 10000 ng/ml)
B3 | no binding (tested: 10000 ng/ml)

The binders below were run against T2, Nectin-like-5 (UniProt P15151 21-343) (assay: ELISA, coated antigen).
T2 construct: Bought recombinant protein; also called CD155; PVR
T2 sequence (looked up): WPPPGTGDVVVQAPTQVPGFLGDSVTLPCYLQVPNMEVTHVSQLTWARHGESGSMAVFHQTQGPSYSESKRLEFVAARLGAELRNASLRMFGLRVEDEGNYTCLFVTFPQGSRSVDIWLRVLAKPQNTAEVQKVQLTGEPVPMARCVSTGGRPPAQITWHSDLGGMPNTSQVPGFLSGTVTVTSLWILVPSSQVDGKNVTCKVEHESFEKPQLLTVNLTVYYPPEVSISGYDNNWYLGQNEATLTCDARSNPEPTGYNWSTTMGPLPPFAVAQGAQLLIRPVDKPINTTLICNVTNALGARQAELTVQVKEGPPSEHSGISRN

Binder | binding result
B1 | no binding (tested: 10000 ng/ml)
B2 | no binding (tested: 10000 ng/ml)
B3 | no binding (tested: 10000 ng/ml)

Each binder was assayed against T3, Nectin-1 (UniProt Q15223 31-334, limits assumed) (assay: ELISA, coated antigen).
T3 construct: Bought recombinant protein; also called CD111; PVRL-1
T3 sequence (looked up): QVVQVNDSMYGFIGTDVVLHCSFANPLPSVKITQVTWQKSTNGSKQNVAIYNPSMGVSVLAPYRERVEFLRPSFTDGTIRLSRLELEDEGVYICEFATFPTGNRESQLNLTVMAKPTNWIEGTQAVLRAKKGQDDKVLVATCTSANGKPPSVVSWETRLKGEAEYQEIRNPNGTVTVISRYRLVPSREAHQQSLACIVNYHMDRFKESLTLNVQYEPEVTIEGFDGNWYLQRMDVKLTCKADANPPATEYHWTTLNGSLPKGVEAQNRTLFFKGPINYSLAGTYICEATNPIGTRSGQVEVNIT

Binder | binding result
B1 | no binding (tested: 10000 ng/ml)
B2 | no binding (tested: 10000 ng/ml)
B3 | no binding (tested: 10000 ng/ml)

What follows are binders tested against T4, Nectin-2 (UniProt Q92692 32-360, limits assumed) (assay: ELISA, coated antigen).
T4 construct: Bought recombinant protein; also called CD112; PVRL-2
T4 sequence (looked up): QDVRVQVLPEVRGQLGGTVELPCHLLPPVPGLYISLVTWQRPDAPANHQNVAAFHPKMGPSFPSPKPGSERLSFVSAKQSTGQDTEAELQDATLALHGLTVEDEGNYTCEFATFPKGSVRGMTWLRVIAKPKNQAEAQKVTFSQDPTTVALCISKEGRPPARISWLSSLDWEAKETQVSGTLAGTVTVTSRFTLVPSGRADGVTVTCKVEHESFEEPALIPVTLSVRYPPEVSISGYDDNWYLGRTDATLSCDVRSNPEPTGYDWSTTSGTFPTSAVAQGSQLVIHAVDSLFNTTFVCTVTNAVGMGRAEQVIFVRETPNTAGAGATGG

Binder | binding result
B1 | no binding (tested: 10000 ng/ml)
B2 | no binding (tested: 10000 ng/ml)
B3 | no binding (tested: 10000 ng/ml)

What follows are binders tested against T5, Nectin-like-1 (UniProt Q8N126 25-330, limits assumed) (assay: ELISA, coated antigen).
T5 construct: Bought recombinant protein; also called CADM3; IgSF4B
T5 sequence (looked up): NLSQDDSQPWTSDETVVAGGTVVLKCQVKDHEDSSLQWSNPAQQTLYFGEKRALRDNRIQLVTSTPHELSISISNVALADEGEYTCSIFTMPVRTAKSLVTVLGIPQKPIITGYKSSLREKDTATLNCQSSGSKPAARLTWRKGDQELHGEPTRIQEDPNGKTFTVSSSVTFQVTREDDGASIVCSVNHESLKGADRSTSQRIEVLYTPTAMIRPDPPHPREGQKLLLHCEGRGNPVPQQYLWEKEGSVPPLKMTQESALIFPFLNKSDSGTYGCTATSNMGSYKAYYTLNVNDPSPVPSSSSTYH

Binder | binding result
B1 | no binding (tested: 10000 ng/ml)
B2 | no binding (tested: 10000 ng/ml)
B3 | no binding (tested: 10000 ng/ml)

The binders below were run against T6, Nectin-like-3 (UniProt Q8N3J6 25-367, limits assumed) (assay: ELISA, coated antigen).
T6 construct: Bought recombinant protein; also called CADM2; IgSF4D
T6 sequence (looked up): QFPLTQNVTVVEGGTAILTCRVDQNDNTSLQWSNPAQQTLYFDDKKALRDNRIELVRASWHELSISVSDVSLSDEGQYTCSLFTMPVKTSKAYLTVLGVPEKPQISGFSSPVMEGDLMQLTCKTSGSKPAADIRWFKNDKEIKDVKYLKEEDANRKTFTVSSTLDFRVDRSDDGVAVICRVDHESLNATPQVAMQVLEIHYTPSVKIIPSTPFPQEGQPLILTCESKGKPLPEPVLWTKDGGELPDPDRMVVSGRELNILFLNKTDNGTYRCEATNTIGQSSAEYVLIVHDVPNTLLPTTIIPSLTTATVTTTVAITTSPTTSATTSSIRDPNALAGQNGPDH

Binder | binding result
B1 | no binding (tested: 10000 ng/ml)
B2 | no binding (tested: 10000 ng/ml)
B3 | no binding (tested: 10000 ng/ml)

The binders below were run against T1, Nectin-like-4 (assay: ELISA, coated antigen, 0 ng/ml antibody (blank control)).
Experimental: Coating: Nectin-1, Nectin-2, Nectin-3, Nectin-4, Nectin-like-1, Nectin-like-2, Nectin-like-3, Nectin-like-4, and Nectin-like-5 were diluted to 5 μg/ml in coating buffer (carbonate buffer, pH 9.6) respectively. A 96-well plate was coat with 100 μl per well and incubated overnight at 2-8° C.;
Sample loading: The plate was taken out, patted dry, and washed twice with 200 μl/well of PBST, then patted dry. The Nectin-4 antibodies prepared in Example 1 (antibody MM11, antibody R012, and antibody R036) were diluted with 1% BSA/PBST to concentrations of 10 μg/ml, 1 μg/ml, 100 ng/ml, and 10 ng/ml, respectively. 1% BSA/PBST solution for dilution was set as a blank control. 100 μl per well was added to the 96-well plate, and incubated at room temperature for 2 hours;
Reaction termination and plate reading: 100 μl/well of 1 mol/L H3PO4 was added to terminate the reaction and the plated was read. The absorbances of wells in the plate at 450 nm with 650 nm as reference wavelength were read and recorded as OD_{450 nm-650 nm}.

Binder | OD detection value [OD450 nm-650 nm]
B1 | 0.008
B2 | 0.007
B3 | 0.008
